Residue numbers refer to the chain shown, from its start. Names and notes keep the numbering of the source. Where two headings read alike, the source gives them in different places.
T1: human FcγRIIA (R131) (human, UniProt P12318 34-218, limits assumed)
T1 construct: Recombinant His-tagged protein
T1 sequence (looked up): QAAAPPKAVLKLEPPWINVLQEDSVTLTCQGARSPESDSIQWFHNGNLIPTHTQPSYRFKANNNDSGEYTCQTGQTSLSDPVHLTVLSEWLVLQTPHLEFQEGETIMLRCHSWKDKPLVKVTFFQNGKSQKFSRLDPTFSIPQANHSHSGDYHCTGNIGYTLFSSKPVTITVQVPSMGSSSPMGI

T2: mouse FcγRIV (mouse, UniProt A0A0B4J1G0 21-203)
T2 construct: Recombinant His-tagged protein
T2 sequence: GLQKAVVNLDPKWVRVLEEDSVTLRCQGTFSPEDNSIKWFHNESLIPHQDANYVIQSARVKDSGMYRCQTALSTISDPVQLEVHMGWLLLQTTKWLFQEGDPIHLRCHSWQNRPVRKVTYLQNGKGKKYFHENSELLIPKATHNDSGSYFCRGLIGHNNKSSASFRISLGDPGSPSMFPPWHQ

T3: mouse FcγRIIB (mouse, UniProt P08101 30-210, limits assumed)
T3 construct: Recombinant His-tagged protein
T3 sequence (looked up): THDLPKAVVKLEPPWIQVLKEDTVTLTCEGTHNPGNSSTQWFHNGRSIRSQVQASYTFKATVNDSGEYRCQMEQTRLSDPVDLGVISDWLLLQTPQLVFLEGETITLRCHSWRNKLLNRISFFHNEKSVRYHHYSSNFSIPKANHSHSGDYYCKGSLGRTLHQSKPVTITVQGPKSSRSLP

T4: human FcγRIIA (H131) (human, UniProt P12318 34-218, limits assumed)
T4 construct: Recombinant His-tagged protein
T4 sequence (looked up): T1 sequence (looked up) with R134H

T5: human FcγRIIB (human, UniProt P31994 43-217, limits assumed)
T5 construct: Recombinant His-tagged protein; also called FcγRIIB (human)
T5 sequence (looked up): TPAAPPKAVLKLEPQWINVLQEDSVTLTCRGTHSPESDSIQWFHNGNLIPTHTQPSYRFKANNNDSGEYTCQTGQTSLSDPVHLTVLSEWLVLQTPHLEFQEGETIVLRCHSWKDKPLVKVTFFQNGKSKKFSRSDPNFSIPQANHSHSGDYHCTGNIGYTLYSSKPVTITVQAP

T6: mouse FcγRIII (mouse, UniProt P08508 31-215)
T6 construct: Recombinant His-tagged protein
T6 sequence (looked up): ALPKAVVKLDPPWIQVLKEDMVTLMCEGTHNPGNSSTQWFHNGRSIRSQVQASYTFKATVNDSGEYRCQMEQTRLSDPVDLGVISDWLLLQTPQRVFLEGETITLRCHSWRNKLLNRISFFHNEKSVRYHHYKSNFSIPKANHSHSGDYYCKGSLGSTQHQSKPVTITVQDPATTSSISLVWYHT

T7: mouse FcγRI (mouse, UniProt P26151 25-297)
T7 construct: Recombinant His-tagged protein
T7 sequence (looked up): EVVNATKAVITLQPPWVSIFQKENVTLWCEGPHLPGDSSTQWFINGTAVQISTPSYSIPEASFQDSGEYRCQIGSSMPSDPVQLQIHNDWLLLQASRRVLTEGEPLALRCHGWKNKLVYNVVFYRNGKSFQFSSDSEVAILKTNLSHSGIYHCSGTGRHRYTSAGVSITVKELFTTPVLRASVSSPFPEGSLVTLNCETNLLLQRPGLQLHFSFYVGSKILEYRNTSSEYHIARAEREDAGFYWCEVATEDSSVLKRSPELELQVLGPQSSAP

B1: 3F6-hIgG1HEK (antibody)
heavy: not shown
light: DIVLTQSPDSLAVSLGERATINCRASESVEYSGASLMQWYQHKPGQPPKLLIYAASNRESGVPDRFSGSGSGTDFTLTISPVQAEDVAMYFCQQSRKVPSTFGGGTKLEIKRTVAAPSVFIFPPSDEQLKSGTASVVCLLNNFYPREAKVQWKVDNALQSGNSQESVTEQDSKDSTYSLSSTLTLSKADYEKHKVYACEVTHQGLSSPVTKSFNRGEC
modifications: Asn297 N-glycans as made by HEK-293F cells (more G1F, G2F and sialic acid than the CHO product)
notes: also called 3F6-hIgG1HEK WT; 3F6-IgG1
B2: 3F6-hIgG1HEK-G2F (antibody)
heavy: not shown
light: B1 light
modifications: Asn297 N-glycan remodelled chemoenzymatically to homogeneous G2F
notes: See m5; also called 3F6-hIgGHEK-G2F
B3: 3F6-hIgG1HEK-G0F (antibody)
heavy: not shown
light: B1 light
modifications: Asn297 N-glycan remodelled chemoenzymatically to homogeneous G0F
notes: See m5; also called 3F6-hIgGHEK-G0F
B4: 3F6-hIgG1HEK-afu (antibody)
heavy: not shown
light: B1 light
modifications: Asn297 N-glycans low in fucose and galactose (HEK-293F cells grown with kifunensine)
notes: See m5; also called afucosylated 3F6-hIgG1HEK
B5: 3F6-hIgG1HEK-deGal (antibody)
heavy: not shown
light: B1 light
modifications: Asn297 N-glycans de-galactosylated with β1-4-galactosidase
notes: See m5
B6: 3F6-hIgG1CHO-Gal (antibody)
heavy: not shown
light: B1 light
modifications: Asn297 N-glycans enzymatically galactosylated (β1,4GalT)
notes: 3F6-hIgG1CHO after enzymatic galactosylation; also called 3F6-IgG1CHO-Gal
B7: 3F6-hIgG1CHO-G2F (antibody)
heavy: not shown
light: B1 light
modifications: Asn297 N-glycan remodelled chemoenzymatically to homogeneous G2F
notes: Endo-S2 deglycosylation and EndoS2-D184M transfer of G2F glycan; also called 3F6-hIgGCHO-G2F
B8: 3F6-hIgG1HEK-G1F (antibody)
heavy: not shown
light: B1 light
modifications: Asn297 N-glycan remodelled chemoenzymatically to homogeneous G1F
notes: See m5; also called 3F6-hIgGHEK-G1F
B9: 3F6-hIgG1CHO (antibody)
heavy: not shown
light: B1 light
modifications: Asn297 N-glycans as made by CHO-DG44 cells (mainly G0F, less G1F and G2F)
notes: Humanized 3F6 human IgG1 produced in CHO-DG44 cells; also called 3F6-hIgG1CHO WT; CHO-produced antibody
B10: 3F6-hIgG1CHO-deSia (antibody)
heavy: not shown
light: B1 light
modifications: Asn297 N-glycans de-sialylated with neuraminidase
notes: 3F6-hIgG1CHO after neuraminidase
B11: 3F6-hIgG1HEK-deSia (antibody)
heavy: not shown
light: B1 light
modifications: Asn297 N-glycans de-sialylated with neuraminidase
notes: See m5
B12: 3F6-hIgG1HEK-KA (antibody, name in EU numbering)
heavy: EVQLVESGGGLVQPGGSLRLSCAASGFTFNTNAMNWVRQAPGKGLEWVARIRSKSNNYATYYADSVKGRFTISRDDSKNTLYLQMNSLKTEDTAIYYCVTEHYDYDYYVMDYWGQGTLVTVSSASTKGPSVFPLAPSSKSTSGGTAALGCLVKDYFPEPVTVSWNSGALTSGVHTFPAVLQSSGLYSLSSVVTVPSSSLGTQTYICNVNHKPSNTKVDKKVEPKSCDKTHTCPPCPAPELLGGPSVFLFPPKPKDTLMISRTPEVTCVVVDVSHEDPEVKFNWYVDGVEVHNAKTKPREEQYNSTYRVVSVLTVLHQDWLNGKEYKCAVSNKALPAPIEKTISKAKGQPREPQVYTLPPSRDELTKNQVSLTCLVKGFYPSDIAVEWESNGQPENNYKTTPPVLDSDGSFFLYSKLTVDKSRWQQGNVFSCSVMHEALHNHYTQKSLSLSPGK
light: B1 light
notes: also called KA variant

How the values were obtained:
[1] = biological target: T8, mouse C1q (mouse, UniProt P98086 23-245; P14106 26-253; Q02105 30-246); assay: ELISA, plate coated with BALB/c mouse serum (mouse C1q)
T8 construct: Plates were coated with BALB/c mouse serum as the source of mouse C1q; also called mc1q
T8 sequence (P98086 23-245 limits assumed, chain 1 of 3): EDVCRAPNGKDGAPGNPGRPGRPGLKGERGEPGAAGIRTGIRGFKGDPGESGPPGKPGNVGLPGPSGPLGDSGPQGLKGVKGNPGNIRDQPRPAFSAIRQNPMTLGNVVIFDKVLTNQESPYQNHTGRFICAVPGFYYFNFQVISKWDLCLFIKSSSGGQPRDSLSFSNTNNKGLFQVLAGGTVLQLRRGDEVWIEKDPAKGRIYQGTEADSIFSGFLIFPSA
T8 sequence (P14106 26-253 limits assumed, chain 2 of 3): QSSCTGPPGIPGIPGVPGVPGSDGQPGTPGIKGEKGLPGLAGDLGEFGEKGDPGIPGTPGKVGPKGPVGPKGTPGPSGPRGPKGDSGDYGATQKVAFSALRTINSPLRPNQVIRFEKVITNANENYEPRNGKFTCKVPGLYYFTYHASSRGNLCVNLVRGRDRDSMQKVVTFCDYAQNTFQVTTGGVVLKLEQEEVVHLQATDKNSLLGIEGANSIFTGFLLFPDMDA
T8 sequence (Q02105 30-246 limits assumed, chain 3 of 3): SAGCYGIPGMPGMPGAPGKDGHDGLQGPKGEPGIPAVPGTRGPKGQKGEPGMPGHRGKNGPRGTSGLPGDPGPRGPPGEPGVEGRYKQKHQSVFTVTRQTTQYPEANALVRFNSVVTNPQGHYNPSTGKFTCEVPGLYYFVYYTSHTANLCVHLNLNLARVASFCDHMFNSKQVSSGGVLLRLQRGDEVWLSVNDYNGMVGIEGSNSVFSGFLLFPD

[2] = biological target: T8, mouse C1q; assay: as above; remark: listed apart in the source
[3] = biological target: T9, human C1q (human, UniProt P02745 23-245; P02746 28-253; P02747 29-245); assay: ELISA, human C1q-coated plate
T9 construct: Purified human C1q (CompTech); also called hc1q; hC1q
T9 sequence (P02745 23-245 limits assumed, chain 1 of 3): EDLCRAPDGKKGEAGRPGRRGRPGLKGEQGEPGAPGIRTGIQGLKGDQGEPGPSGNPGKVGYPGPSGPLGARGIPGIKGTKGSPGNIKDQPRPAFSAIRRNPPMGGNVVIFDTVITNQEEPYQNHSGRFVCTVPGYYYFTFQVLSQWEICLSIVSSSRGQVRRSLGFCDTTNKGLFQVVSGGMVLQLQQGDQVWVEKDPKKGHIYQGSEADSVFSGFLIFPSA
T9 sequence (P02746 28-253 limits assumed, chain 2 of 3): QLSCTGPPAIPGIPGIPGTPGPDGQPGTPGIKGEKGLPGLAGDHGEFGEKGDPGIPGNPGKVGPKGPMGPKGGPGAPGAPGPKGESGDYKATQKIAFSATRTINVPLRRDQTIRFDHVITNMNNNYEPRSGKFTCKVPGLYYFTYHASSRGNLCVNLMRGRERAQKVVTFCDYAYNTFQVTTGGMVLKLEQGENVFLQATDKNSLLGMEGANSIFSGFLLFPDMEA
T9 sequence (P02747 29-245 limits assumed, chain 3 of 3): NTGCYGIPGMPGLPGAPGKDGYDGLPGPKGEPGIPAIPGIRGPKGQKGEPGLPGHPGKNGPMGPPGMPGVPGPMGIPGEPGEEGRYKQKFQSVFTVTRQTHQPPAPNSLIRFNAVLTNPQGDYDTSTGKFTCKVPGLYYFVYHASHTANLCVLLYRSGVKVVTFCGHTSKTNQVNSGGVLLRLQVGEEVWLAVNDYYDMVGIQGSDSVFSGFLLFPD

[4] = biological target: T10, human FcγRIA (human, UniProt P12314 16-288, limits assumed); assay: ELISA, His-tagged FcγR captured by anti-His antibody
T10 construct: Recombinant His-tagged protein
T10 sequence (P12314 16-288 limits assumed): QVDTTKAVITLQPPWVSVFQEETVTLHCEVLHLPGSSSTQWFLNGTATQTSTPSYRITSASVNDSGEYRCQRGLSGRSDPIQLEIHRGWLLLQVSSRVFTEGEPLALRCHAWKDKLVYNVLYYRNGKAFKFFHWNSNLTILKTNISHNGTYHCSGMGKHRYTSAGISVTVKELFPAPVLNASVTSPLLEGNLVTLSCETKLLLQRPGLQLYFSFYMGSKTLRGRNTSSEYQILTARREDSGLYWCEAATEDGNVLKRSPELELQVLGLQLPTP

[5] = biological target: T1, human FcγRIIA (R131); assay: as above
[6] = biological target: T2, mouse FcγRIV; assay: as above
[7] = biological target: T11, human FcγRIIIA (V158) (human, UniProt P08637 17-208); assay: as above
T11 construct: Recombinant His-tagged protein
T11 sequence (P08637 17-208 F176V limits assumed): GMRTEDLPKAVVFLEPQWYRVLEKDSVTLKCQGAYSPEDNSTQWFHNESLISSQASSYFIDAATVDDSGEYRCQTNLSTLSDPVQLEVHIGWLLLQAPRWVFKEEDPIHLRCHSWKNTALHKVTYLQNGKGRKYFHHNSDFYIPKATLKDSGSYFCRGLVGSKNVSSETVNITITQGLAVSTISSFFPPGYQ

[8] = biological target: T3, mouse FcγRIIB; assay: as above
[9] = biological target: T4, human FcγRIIA (H131); assay: as above
[10] = biological target: T5, human FcγRIIB; assay: as above
[11] = biological target: T6, mouse FcγRIII; assay: as above
[12] = biological target: T12, human FcγRIIIA (F158) (human, UniProt P08637 17-208); assay: as above
T12 construct: Recombinant His-tagged protein
T12 sequence (P08637 17-208 limits assumed): as the sequence (P08637 17-208 F176V limits assumed) above, with V160F counted along it

[13] = biological target: T7, mouse FcγRI; assay: as above
[14] = biological target: T9, human C1q; assay: ELISA, human C1q-coated plate; remark: listed apart in the source

Binder	Ka [1]	Ka [2]	Ka [3]	Ka [4]	Ka [5]	Ka [6]	Ka [7]	Ka [8]	Ka [9]	Ka [10]	Ka [11]	Ka [12]	Ka [13]	Ka [14]
B1	6.08e+07 M⁻¹	6.08e+07 M⁻¹	1.87e+07 M⁻¹	7.88e+08 M⁻¹	1.53e+06 M⁻¹	1.35e+08 M⁻¹	2.31e+07 M⁻¹	1.61e+06 M⁻¹	1.13e+06 M⁻¹	925000 M⁻¹	1.69e+06 M⁻¹	1.97e+06 M⁻¹	1.84e+08 M⁻¹	1.87e+07 M⁻¹
B2														5.5e+07 M⁻¹
B3														6.94e+06 M⁻¹
B4	2.79e+06 M⁻¹		5.97e+06 M⁻¹	5.83e+08 M⁻¹	1.82e+06 M⁻¹	3.19e+08 M⁻¹	5.63e+07 M⁻¹	1.62e+06 M⁻¹	1.51e+06 M⁻¹	179000 M⁻¹	2.3e+06 M⁻¹	9.2e+06 M⁻¹	9.2e+07 M⁻¹	
B5														4e+06 M⁻¹
B6														2.17e+07 M⁻¹
B7														5.11e+07 M⁻¹
B8														3.83e+07 M⁻¹
B9	8.87e+06 M⁻¹	8.87e+06 M⁻¹	4.91e+06 M⁻¹	7.66e+08 M⁻¹	2.36e+06 M⁻¹	1.15e+08 M⁻¹	2.75e+07 M⁻¹	1.53e+06 M⁻¹	1.75e+06 M⁻¹	1.65e+06 M⁻¹	1.49e+06 M⁻¹	3.09e+06 M⁻¹	1.77e+08 M⁻¹	4.91e+06 M⁻¹
B10														5.5e+06 M⁻¹
B11														3.37e+07 M⁻¹
B12	1.34e+06 M⁻¹		1.37e+06 M⁻¹	7.86e+08 M⁻¹	1.81e+06 M⁻¹	2.66e+08 M⁻¹	1.4e+07 M⁻¹	3.35e+06 M⁻¹	1.23e+06 M⁻¹	1.18e+06 M⁻¹	2.96e+06 M⁻¹	1.51e+06 M⁻¹	3.97e+08 M⁻¹	
